Data: the Immune Epitope Database (IEDB)
pKd: −log10 of the molar value.

How the values were obtained:
Experiment in all cases: IEDB peptide-MHC binding, purified MHC/direct/fluorescence; filed as Kd, often an IC50 or EC50 that approximates it; ≥ and ≤ were set here for values at or beyond the usual limits of such assays
Details in all cases: source organism: Rickettsia bellii OSU 85-389
HLA-A*02:12 = target: HLA-A*02:12
HLA-A*24:03 = target: HLA-A*24:03
HLA-A*02:19 = target: HLA-A*02:19
HLA-A*26:01 = target: HLA-A*26:01
HLA-A*02:16 = target: HLA-A*02:16
HLA-B*15:01 = target: HLA-B*15:01
HLA-B*39:01 = target: HLA-B*39:01
HLA-B*27:03 = target: HLA-B*27:03
HLA-B*57:01 = target: HLA-B*57:01

Measured: pKd

EDFEIFYNL
≤ 4.70: all assays above
